The source of these data is US20120076815A1.

This experiment has as its target recombinant TcPRACA proline racemase of Trypanosoma cruzi (subunit) (Trypanosoma cruzi) (UniProt Q4DA80). Nature of the experiment: cell-based or functional assay.

Turning to “recombinant TcPRACA proline racemase of Trypanosoma cruzi (subunit) (from UniProt Q4DA80 30-423) (enzyme)”, the % racemization (fraction B1, start of the dimer peak) is 35.5%; the % racemization (fraction B2, dimer peak, about 80 kDa) came out at 62.9%; the % racemization (fraction B4, monomer peak, about 43 kDa) is 0.7%; the % racemization (fraction B5, end of the monomer peak) was found to be 0%.
